The record followed here is patent US20220275049A1 (AGENUS, published 2022).

Square brackets hold non-standard residues; d marks the D form. Ends that are not written are not given here. pY = N[C@@H](Cc1ccc(OP(=O)(O)O)cc1)C(=O)O; pT = C[C@@H](OP(=O)(O)O)[C@H](N)C(=O)O; pS = N[C@@H](COP(=O)(O)O)C(=O)O

B1: RLLsAAENFL (peptide)
peptide: RLL[pS]AAENFL-OH
modifications: N-terminus assumed
SMILES: CC(C)C[C@H](NC(=O)[C@H](Cc1ccccc1)NC(=O)[C@H](CC(N)=O)NC(=O)[C@H](CCC(=O)O)NC(=O)[C@H](C)NC(=O)[C@H](C)NC(=O)[C@H](COP(=O)(O)O)NC(=O)[C@H](CC(C)C)NC(=O)[C@H](CC(C)C)NC(=O)[C@@H](N)CCCNC(=N)N)C(=O)O

As a reminder, the Kd is a measure of binding affinity in units of concentration.

The first assay concerns the target T1, biotinylated HLA-B*07:02 with β2m (human, biotinylated).
T1 construct: also called B*07:02 (as the text prints it)
The assay is described as follows: AlphaScreen, peptide titrated on biotinylated HLA + b2m. Here is the method:
(§1) An AlphaScreen® assay was used to evaluate the binding of peptides to HLA molecules. Donor beads conjugated with streptavidin, and acceptor beads conjugated with the anti-human HLA class I antibody W6/32, were used to assess peptide binding. Biotinylated HLAs (A*02:01, B*07:02, C*07:01, or C*07:02) were mixed with a fixed excess of β2m and the mixtures added to each well of a 384-well microplate. Serial dilutions of the synthesized phosphopeptides were added to the wells, and the resultant HLA/β2/peptide mixtures were incubated overnight at 18° C. W6/32 conjugated acceptor beads were subsequently added to the wells, and the mixture was incubated for 1 hour at 21° C. Streptavidin conjugated donor beads were then added to the wells, and the mixture was incubated for a further 1 hour at 21° C.
(§2) The microplate was read using the PerkinElmer® plate reader, and data were plotted using the Michaelis-Menten equation to determine the Kd for each phosphopeptide.
On the technique in general: In Alpha technology, singlet oxygen from a donor bead excites a nearby acceptor bead.
Regarding SPFKRQL[pS]L [SPFKRQLsL], the Kd worked out at 64.7 nM.
Consider SIM[pS]PEIQL [SIMsPEIQL], for which the binding result was “no binding”.
Still for that read-out and setting: as for SLF[pS]SEESNL [SLFsSEESNL], the entry is “no binding”.
RPRPV[pS]PSSLL [RPRPVsPSSLL]: the Kd was determined as 186 nM.
Consider TVF[pS]PTLPAA [TVFsPTLPAA], for which the binding result was “no binding”.
On the same count and under the same terms, as for KRF[pS]GTVRL [KRFsGTVRL], the entry is “no binding”.
Take RPR[pS]ISVEEF [RPRsISVEEF]: the Kd stood at 86.1 nM.
As for LPA[pS]PRARL [LPAsPRARL], the Kd amounted to 83.5 nM.
Same read-out and setting: as for RPF[pS]PREAL [RPFsPREAL], the figure is 163 nM.
As for RRS[pS]FLQVF [RRSsFLQVF], the binding result was “no binding”.
For the molecule SPA[pS]PKISL [SPAsPKISL], the Kd amounted to 275 nM.
Take SIS[pS]MEVNV [SISsMEVNV]: the binding result is “no binding”.
Same read-out and setting: next, RRF[pS]GTAVY [RRFsGTAVY]: “no binding”; KIK[pS]FEVVF [KIKsFEVVF]: “no binding”.
Turning to RPDVAKRL[pS]L [RPDVAKRLsL], the dissociation constant (Kd) was found to be 216 nM.
With SMS[pS]LSREV [SMSsLSREV], the binding result is recorded as “no binding”.
Take LPRPA[pS]PAL [LPRPAsPAL]: the dissociation constant Kd came to 223 nM.
With RPAFF[pS]PSL [RPAFFsPSL], the Kd turned out to be 398 nM.
For the molecule SISS[pT]PPAV [SISStPPAV], the binding result is “no binding”.
Still for that read-out and setting: as for SLF[pS]GDEENA [SLFsGDEENA], the entry is “no binding”; as for RLL[pS]FQRYL [RLLsFQRYL], “no binding”.
Take RPY[pS]PPFFSL [RPYsPPFFSL]: the Kd came out at 157 nM.
In the case of SLHDIQL[pS]L [SLHDIQLsL], the Kd turned out to be 642 nM.
Turning to SLQ[pS]LETSV [SLQsLETSV], the binding result was “no binding”.
Turning to YRY[pS]PQSFL [YRYsPQSFL], the binding result is on record as “no binding”.
Still for that read-out and setting: as for VLFS[pS]PPQM [VLFSsPPQM], the entry is “no binding”.
As for RPR[pS]PTGPSNSFL [RPRsPTGPSNSFL], the Kd turned out to be 360 nM.
Turning to SLF[pS]SEESNLGA [SLFsSEESNLGA], the binding result is recorded as “no binding”.
With RPRIP[pS]PIGF [RPRIPsPIGF], the equilibrium dissociation constant (Kd) is 84.4 nM.
Turning to RRI[pS]DPQVF [RRIsDPQVF], the binding result was “no binding”.
On the same count and under the same terms, as for RRG[pS]FEVTL [RRGsFEVTL], the entry is “no binding”.
Turning to AVRPTRL[pS]L [AVRPTRLsL], the Kd is 117 nM.

In another assay the target is biotinylated HLA-C*07:01 with β2m (human, biotinylated). The assay is described as above. Here is the method: as §1, §2
On to SLF[pS]SEESNL [SLFsSEESNL], for which the binding result is “no binding”.
In the case of RIYQ[pY]IQSRF [RIYQyIQSRF], the Kd stood at 477 nM.
Consider TVF[pS]PTLPAA [TVFsPTLPAA], for which the binding result was “no binding”.
Still for that read-out and setting: as for SIS[pS]MEVNV [SISsMEVNV], the entry is “no binding”; as for SVKPRRT[pS]L [SVKPRRTsL], “no binding”.
Turning to RRF[pS]GTAVY [RRFsGTAVY], the Kd came to 2180 nM.
The same measure, in the same setting: next, RRP[pS]LLSEF [RRPsLLSEF]: 804 nM.
Take SMS[pS]LSREV [SMSsLSREV]: the binding result was “no binding”.
With SISS[pT]PPAV [SISStPPAV], the binding result is “no binding”.
For the molecule SLF[pS]GDEENA [SLFsGDEENA], the binding result is recorded as “no binding”.
Consider SLHDIQL[pS]L [SLHDIQLsL], for which the equilibrium dissociation constant (Kd) came out at 962 nM.
With SLQ[pS]LETSV [SLQsLETSV], the binding result is “no binding”.
For the molecule [pY]LQSRYYRA [yLQSRYYRA], the binding result is “no binding”.
For SLF[pS]SEESNLGA [SLFsSEESNLGA], the binding result is on record as “no binding”.
Turning to RRL[pS]FLVSY [RRLsFLVSY], the Kd was 1570 nM.
The same measure, in the same setting: as for RRI[pS]DPQVF [RRIsDPQVF], the figure is 11.4 nM; as for RRG[pS]FEVTL [RRGsFEVTL], 16.6 nM.

A further assay addresses T2, biotinylated HLA-A*02:01 with β2m (human, biotinylated).
T2 construct: HLA heavy chain mixed with excess β2m; the peptide is titrated onto it
Described as above. Here is the method: as §1, §2
With SIM[pS]PEIQL [SIMsPEIQL], the dissociation constant (Kd) came to 84 nM.
Still for that read-out and setting: as for SLF[pS]SEESNL [SLFsSEESNL], the figure is 466 nM; as for RLS[pS]PLHFV [RLSsPLHFV], 90.6 nM.
The same measure, in the same setting: next, TVF[pS]PTLPAA [TVFsPTLPAA]: 46.9 nM.
Same read-out and setting: as for SIS[pS]MEVNV [SISsMEVNV], the figure is 306 nM.
With SVKPRRT[pS]L [SVKPRRTsL], the binding result was “no binding”.
Take SMS[pS]LSREV [SMSsLSREV]: the Kd is 927 nM.
As for LPRPA[pS]PAL [LPRPAsPAL], the binding result is given as “no binding”.
Same read-out and setting: as for RPAFF[pS]PSL [RPAFFsPSL], the entry is “no binding”.
Turning to SISS[pT]PPAV [SISStPPAV], the Kd was determined as 169 nM.
On the same count and under the same terms, as for SLF[pS]GDEENA [SLFsGDEENA], the figure is 278 nM; as for SLF[pS]PQNTL [SLFsPQNTL], 116 nM.
Same read-out and setting: next, RLL[pS]FQRYL [RLLsFQRYL]: 49.7 nM.
On the same count and under the same terms, next, SLHDIQL[pS]L [SLHDIQLsL]: 31.9 nM.
As to SLQ[pS]LETSV [SLQsLETSV], the Kd worked out at 121 nM.
Still for that read-out and setting: next, [pY]LQSRYYRA [yLQSRYYRA]: 255 nM.
For the molecule RIYQ[pY]IQSR [RIYQyIQSR], the binding result was “no binding”.
With YRY[pS]PQSFL [YRYsPQSFL], the binding result is given as “no binding”.
Regarding RPK[pT]PPVVI [RPKtPPVVI], the binding result was “no binding”.
Regarding VLFS[pS]PPQM [VLFSsPPQM], the Kd amounted to 227 nM.
As for RPR[pS]PTGPSNSFL [RPRsPTGPSNSFL], the binding result is given as “no binding”.
Consider SLF[pS]SEESNLGA [SLFsSEESNLGA], for which the dissociation constant (Kd) is 149 nM.
Regarding RPRIP[pS]PIGF [RPRIPsPIGF], the binding result was “no binding”.
Consider B1, for which the Kd stood at 114 nM.
Regarding AVRPTRL[pS]L [AVRPTRLsL], the binding result is listed as “no binding”.

The target in the next assay is biotinylated HLA-C*07:02 with β2m (human, biotinylated). The description is as above. As to the method:
as §1, §2
As to SLF[pS]SEESNL [SLFsSEESNL], the binding result was “no binding”.
Turning to RIYQ[pY]IQSRF [RIYQyIQSRF], the Kd came to 377 nM.
For TVF[pS]PTLPAA [TVFsPTLPAA], the binding result was “no binding”.
As for RRS[pS]FLQVF [RRSsFLQVF], the Kd is 19 nM.
SIS[pS]MEVNV [SISsMEVNV]: the binding result is “no binding”.
Still for that read-out and setting: next, SVKPRRT[pS]L [SVKPRRTsL]: “no binding”.
On to RRF[pS]GTAVY [RRFsGTAVY], for which the Kd worked out at 16.7 nM.
In the case of RRP[pS]LLSEF [RRPsLLSEF], the Kd was 35.7 nM.
Consider SMS[pS]LSREV [SMSsLSREV], for which the binding result was “no binding”.
For the molecule SISS[pT]PPAV [SISStPPAV], the binding result is “no binding”.
Still for that read-out and setting: as for SLF[pS]GDEENA [SLFsGDEENA], the entry is “no binding”.
With FRR[pS]PTKSSLDY [FRRsPTKSSLDY], the Kd is 98.6 nM.
As for SLHDIQL[pS]L [SLHDIQLsL], the equilibrium dissociation constant (Kd) was determined as 413 nM.
As to SLQ[pS]LETSV [SLQsLETSV], the binding result is reported as “no binding”.
The same measure, in the same setting: next, VLFS[pS]PPQM [VLFSsPPQM]: “no binding”; SLF[pS]SEESNLGA [SLFsSEESNLGA]: “no binding”.
On to RRL[pS]FLVSY [RRLsFLVSY], for which the Kd was determined as 113 nM.
On the same count and under the same terms, as for RRI[pS]DPQVF [RRIsDPQVF], the figure is 19.9 nM; as for RRG[pS]FEVTL [RRGsFEVTL], 15.9 nM.
